Test results published in the supplement of paper PMC12042874.
± gives the uncertainty stated by the source.

Experiment: amyloid nucleation score (Sup35N fusion, yeast selection) (log enrichment); library NNK2; higher = more nucleation; inactive = no reads after selection
In short: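 Sup35N fusions to peptides of 20 random codons were expressed in psi-negative yeast, induced 24 hours with 100 μM copper sulfate, and grown 7 days at 30°C on medium lacking adenine and uracil. Input and output plasmid inserts were sequenced by Illumina. The nucleation score is the DiMSum log enrichment of output over input reads, centred on the mode score of non-aggregating sequences. Sequences with under 100 input reads were excluded.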

| Substance | amyloid nucleation score |
| --- | --- |
| LYPRPPYSRWIIANHSNWGS | 0.218 ± 0.8 |
| LYRFSSLLWLSVSSSCDIV | inactive |
| LYSCCLQCSSTNSIYEDLMC | inactive |
| LYSESIVLFAYGFNGDGGLY | -0.67 ± 0.29 |
| LYTLVFIKNFISMYLREILT | -1.8 ± 0.48 |
| LYTMNLHYFLLFEESVS | -0.835 ± 0.28 |
| MADTPSNFKYYLPKLFKG | inactive |
| MAGLTSWCGPHHTVWLTWNG | 0.939 ± 0.3 |
| MAHWSSSNSTVVLGCLAWML | 6.17 ± 0.081 |
| MAKSCGRSCTCSRSKVSVGG | 0.52 ± 0.57 |
| MASTIWIMLVYDLNARKMHI | 4.87 ± 0.073 |
| MATDDIN | -0.359 ± 0.79 |
| MCFSIRPPGVMRVMHLTLVW | 0.135 ± 0.79 |
| MCHVKFIT | 3.18 ± 0.067 |
| MCYCLYNVGPCGDGH | 1.23 ± 0.28 |
| MCYHDSVNNERINMGVLLHV | 0.067 ± 0.56 |
| MDCILNYFFVLLLGHGNLLM | -0.826 ± 0.54 |
| MDGIGTFNLSENR | inactive |
| MDIFCYTGRPTSAKRAS | -1.05 ± 0.64 |
| MDKCETEMYIMSAHVFRRLW | 6.229 ± 0.048 |
| MDLVCVAKSDVQACTYSAPV | 1.1 ± 0.39 |
| MDLYCD | inactive |
| MDTVMRLYVCVCCRSFLRIG | 1.62 ± 0.35 |
| MEGITRFSPPKNSEYIVLAG | -0.613 ± 0.44 |
| MFAFMNFRRTIVVYEVWGSY | inactive |

| Substance | amyloid nucleation score |
| --- | --- |
| MFAVLSLDRGYHKAR | -0.205 ± 0.55 |
| MFAVLTGSIFKWKWWTIGFR | -0.265 ± 0.28 |
| MFCGDSCSTVPCCVCICFLY | 5.02 ± 0.058 |
| MFCRTRALSRTGPTGQLLRV | 3.56 ± 0.13 |
| MFDFCPIMTLF | -0.771 ± 1.1 |
| MFGNTGLTSYYALTGTRWLY | -0.487 ± 0.79 |
| MFHCSSKACLPVVDVGVVVC | 0.96 ± 0.29 |
| MFHLRSNVMPTGLVRTPMLL | 1.54 ± 0.44 |
| MFIMFIAVSFVGRMYGGHRH | -0.44 ± 0.26 |
| MFVCYSRYIASEREPAACPI | inactive |
| MFVHLGGTWMQR | 5.135 ± 0.046 |
| MFWKTWGVNCQATNRMEIRL | 2.99 ± 0.055 |
| MFWRITGAI | 0.402 ± 0.34 |
| MGARSIRDRSSVGK | -0.464 ± 1.1 |
| MGLNYLKQQAARYDEGGPS | 1.5 ± 0.42 |
| MGLTEEVIKWQGHVGWTWAG | 1.55 ± 0.29 |
| MGMAHFDSQPLGYILGASMC | -0.727 ± 0.79 |
| MGMLFMFVITKKSLVQDSLY | 2.64 ± 0.19 |
| MGPDMYVCKVWLGAVAYEMG | 1.95 ± 0.4 |
| MGSAS | 0.682 ± 0.34 |
| MGVLWMFFSF | 0.03 ± 0.4 |
| MGVSNIDIVSRILNPGAAAS | 1.36 ± 0.41 |
| MHHIFYVGNLSW | inactive |
| MHHQSSAFNQGHASPYLSWK | 0.741 ± 0.39 |
| MHKAFWPNLALFVMNGYGGV | 0.304 ± 0.42 |

| Substance | amyloid nucleation score |
| --- | --- |
| MHLCADPAGFWDWN | -0.446 ± 1 |
| MHQSQVMSLSDPAAGKSFWV | -0.56 ± 0.79 |
| MIDLTLIFLFLVYSD | -0.827 ± 0.62 |
| MIHYRWTHYNTRIGGYRYWE | 3.54 ± 0.05 |
| MIMHNVANDWTVFYFLCRVV | -0.723 ± 0.55 |
| MIVMLESLRRTTSQP | 1.69 ± 0.21 |
| MIWGVT | 1.01 ± 0.4 |
| MKRIRLGNQVRCEAANCRGR | 1.1 ± 0.24 |
| MLARFSSHVPGTDVNPIGRQ | 0.317 ± 0.5 |
| MLELSATMSVHVQRLNASGH | 9.009 ± 0.068 |
| MLLIRGHILIPGADLTIIPE | -0.692 ± 0.56 |
| MLMSNFCF | -0.077 ± 0.74 |
| MLSRNNCNALWYSIFS | -1.5 ± 1 |
| MLSTTEVCVGPDRD | 3.89 ± 0.088 |
| MLVCRWNACSVVLSVSGLAR | 0.718 ± 0.21 |
| MLVNRFGGVA | -0.402 ± 0.38 |
| MLVVLMFSLSDSI | 1.67 ± 0.1 |
| MMFNSLCSYWTTDYFATPDL | 6.778 ± 0.062 |
| MMGRTTWMDIKIYWENQCAE | -0.176 ± 1.1 |
| MMNTMLHGIVVMNFSWVASW | 4.26 ± 0.053 |
| MMSEVLKDVSCHFIPLGGQV | -0.694 ± 0.48 |
| MNFCGNRCPFSLYIPWTACV | -0.664 ± 1.1 |
| MNGVLFMCFIH | 3.86 ± 0.085 |
| MNIYEVSKYENGY | 3 ± 0.071 |
| MNKNYFSGLPGGSVCYSVEY | -0.732 ± 0.38 |

| Substance | amyloid nucleation score |
| --- | --- |
| MNLAVGWSHSPDQDLYYPML | -0.339 ± 0.56 |
| MPGQFHFVMNFRINRNYIRS | 5.92 ± 0.067 |
| MPPGCRMIFALIVVVIQFNF | 0.04 ± 0.76 |
| MPQSSRFCTNSFGNRHRRSW | -0.343 ± 1.1 |
| MPTIRNWVCW | 0.639 ± 0.47 |
| MQISKQTFPHNWVVYRSDYG | -0.776 ± 1.1 |
| MQKRRDSKYEYLVFGCDVCM | -1.13 ± 1.1 |
| MQYCLGFDLNLRNYICHPGR | 7.303 ± 0.063 |
| MRGAYLRFRSMCAGAAGKCD | inactive |
| MRGGLGV | 0.492 ± 0.49 |
| MRLLILDPYAREQ | inactive |
| MRTKGIRQADVFCESYRFNT | -0.029 ± 0.65 |
| MSGVSAVLRDLFKYVELIIR | inactive |
| MSPLH | -0.181 ± 0.39 |
| MSPNLIMMHHCH | 0.094 ± 0.41 |
| MSSRTHLARRHPVMDVCCSR | 6.639 ± 0.036 |
| MSWIGCYYYFNAQQHNSG | 9.318 ± 0.052 |
| MSYAYKVRSCCVMFMMFRSW | -0.336 ± 0.54 |
| MSYCNT | 1.77 ± 0.11 |
| MTCCF | -0.877 ± 1.1 |
| MTFNVFRNQALRPNCCKPNG | 3.09 ± 0.18 |
| MTLMKDCDMNISHSARAKAS | 0.255 ± 0.18 |
| MTRNGDLFS | 0.657 ± 0.4 |
| MTYYRAYFAYLWVVRLWL | 0.029 ± 0.32 |
| MVCVELFWFARLSLPGA | 0.246 ± 1.1 |

| Substance | amyloid nucleation score |
| --- | --- |
| MVDKNNAKINHSR | inactive |
| MVHHGGCAWMSSACTCNVHC | 0.313 ± 0.27 |
| MVIGNLGLLLEGLRVEYLNH | inactive |
| MVKSHLMTKFCD | -0.394 ± 0.34 |
| MVLNIDCFCDFYLALSCMSI | 5.58 ± 0.079 |
| MVLRKLTYILPTRLLGQRFL | inactive |
| MVLVMCPLS | 0.015 ± 0.25 |
| MVRVYSVCDKDHQMYNHFFR | 0.67 ± 0.44 |
| MVSGRPTVYKTSSLQTASAN | -0.14 ± 0.65 |
| MVYELRRFRCLFITVSGVDS | inactive |
| MWINHDPGWRCYYLYFPFL | 3.59 ± 0.074 |
| MYCETLRRSILMVNMNPRNP | -0.114 ± 0.31 |
| MYEGGSTLW | -0.441 ± 0.45 |
| MYKVPTCPMFMVDNYYKLLN | inactive |
| MYLAGHLDCGGY | 3.27 ± 0.055 |
| MYLPMVDVIEVSYSVNLERG | -0.311 ± 0.32 |
| MYLTCFWVGQDGKGRKDGGV | 5.62 ± 0.078 |
| MYRPINFITCSVRMFVVIVC | inactive |
| MYSISVNMKNSFRNL | 0.566 ± 0.66 |
| MYVRVDFVFSNADRTWNPLK | 3.76 ± 0.08 |
| NADLMGIKSVKGS | -0.352 ± 1.1 |
| NAFGTSFCEIMRR | 1.22 ± 0.33 |
| NAKCNSTGKTCQFGCQYP | 1.51 ± 0.39 |
| NARFFNSFNSFM | 3 ± 0.076 |
| NASTRSGNYQFARHGLGYRR | 1.44 ± 0.17 |

| Substance | amyloid nucleation score |
| --- | --- |
| NAWDVTKSYQHVHSCSIMLV | inactive |
| NCASWLYGSCACVGLLDLFE | -0.626 ± 0.41 |
| NCGRTNGLCPGYVCVSRLAW | 1.09 ± 0.21 |
| NCLYICVCGLCMFQKLRC | -0.246 ± 0.76 |
| NCPPFHRMYLTSIIGSLSDD | -0.306 ± 0.49 |
| NCVWNWRHWFTVVNSF | 1.95 ± 0.089 |
| NCWVVSQYTVVN | -0.77 ± 0.79 |
| NCYMSVLILVRLLGSHLKQS | -0.249 ± 1.1 |
| NDGYFVFDALFFHR | -2.34 ± 0.75 |
| NDHSVHINYLIIGAIHNTVN | 8.405 ± 0.065 |
| NDPGYLTTYI | -0.418 ± 0.27 |
| NDRSSDWCCIPSKLRWSRSG | 4.1 ± 0.057 |
| NDSFPRDNFVESWQACEILM | -0.78 ± 0.44 |
| NDWCRGENITALWDGYGSGL | 0.597 ± 0.46 |
| NEFIEVALSLYRVNCQRNFI | -1.5 ± 0.53 |
| NEIARILEVRIGVEGYGGIF | -0.722 ± 0.3 |
| NELLNTWRLLSCPWRIWSLR | 0.67 ± 0.26 |
| NETCGYLNKNWLL | 0.04 ± 0.45 |
| NETLSTCCLYHFKG | 4.04 ± 0.046 |
| NEVRYLGTVLACQQRLHTWM | 1.06 ± 0.29 |
| NEYGLLYVFIPSSISPLADI | -1.5 ± 1.1 |
| NFDGSCKA | -0.853 ± 1.1 |
| NFHGDAYLESVRWIHIRNKR | -0.735 ± 0.48 |
| NFHGSASNCDAIVYANFTMH | 4.61 ± 0.086 |
| NFKNATIAFIGNMTMIVPRG | 8.291 ± 0.038 |

| Substance | amyloid nucleation score |
| --- | --- |
| NFKTI | inactive |
| NFLDMEWTNLLSVMCVDFWS | 4.55 ± 0.062 |
| NFTSFAYFELEDALWSWRRL | 1.16 ± 0.35 |
| NFVRRSKSDKPCCYKTHSST | -0.747 ± 0.41 |
| NFVSISMGNIYMSQLGRWTA | 8.33 ± 0.051 |
| NFWMVPLIA | -0.541 ± 0.79 |
| NFYKEFGGMIAYLDKILREE | -1.13 ± 0.55 |
| NGAYNACNNTGYRTHAY | -0.818 ± 0.78 |
| NGDVTVMITF | 5.463 ± 0.031 |
| NGEASVGDFNVCLR | -0.478 ± 0.64 |
| NGGTMLMRLDRS | -0.216 ± 0.63 |
| NGPVQIASGGRRVPLLWEVL | 0.098 ± 0.79 |
| NGTLRAFVIKKVRIIDSRQV | 4.09 ± 0.076 |
| NHRKVLMVVVLAVHNMGCCI | 3.75 ± 0.15 |
| NIFFNL | -0.13 ± 0.36 |
| NIFYRLNGFFQCPRSGLKGC | inactive |
| NIIACMYKLEDSGRQFSMLE | 5.214 ± 0.046 |
| NINLA | inactive |
| NIRLRFCFRQMEWHNRFRDC | 3.93 ± 0.069 |
